Data on three compounds can be found in patent US8975044B2, “Polynucleotides encoding for frizzled-binding agents and uses thereof” (OncoMed Pharmaceuticals, Inc., priority 2008, dated 2015).

The test system of one assay is OMP-Pn4 tumors. Briefly: Limiting dilution assay of cancer stem cell frequency in treated OMP-Pn4 tumors. The class given is in vivo, NOD/SCID mice. Conditions: tumors after 41 days treatment; 30-810 cells re-injected, 75 days; L-Calc. The method, then: Control and treated tumors from the OMP-Pn4 xenograft study described above (Example 7) were harvested at the end of 41 days treatment. The tumors were processed and dissociated into single cells. Tumor cells were then incubated with biotinylated mouse antibodies (α-mouse CD45-biotin 1:200 dilution and rat α-mouse H2 Kd-biotin 1:100 dilution, BioLegend, San Diego, Calif.) on ice for 30 min followed by addition of streptavidin-labeled magnetic beads (Invitrogen, Carlsbad, Calif.) to remove mouse cells. The remaining human cells in the suspension were collected, counted and diluted to appropriate cell doses (30, 90, 270 and 810 cells), mixed in the mixture of 1:1 (v/v) FACS buffer and Matrigel and injected subcutaneously in NOD/SCID mice (10 mice per cell dose per treatment group). Each dot in FIG. 40 represents the tumor volume of an individual mouse. The percentage of mice with detectable tumors was determined in all groups injected with anti-FZD antibody treated tumor cells and compared to the percentage of mice with detectable tumors in the controls. For example, the number of mice injected with 810 control-treated tumor cells that have detectable tumors was determined and compared to the number of mice injected with 810 FZD-antibody treated tumor cells that have detectable tumors. […]

The target of assay [1] is T1, FZD7 (Homo sapiens, UniProt O75084). Put plainly: Biacore affinity to recombinant Fzd Fc protein. The class given is binding. On the set-up: Fc (C). Conditions: IgG antibody; Fzd Fc immobilized on CM5 Biacore chip. The method, then:
The KDs of 18R8 and 18R5 antibodies were determined using the Biacore 2000 system from Biacore Lifescience (GE Healthcare). Specifically, purified anti-Fzd7 antibodies were serially diluted in 2-fold increments from 100 to 0.78 nM in HBS-P (0.01 M HEPES pH 7.4, 0.15 M NaCl, 0.005% v/v Surfactant P20). Each dilution was tested against recombinant Fzd Fc proteins immobilized onto a CM5 Biacore chip. The association and dissociation rates were measured and KD values determined using the Biaevaluation software program (Table 5, below).

For assay [2], the target named is T1, FZD7. Briefly: FACS binding to FZD-transfected HEK293 cells. On the set-up: plasmid DNA expressing full-length FZD1, 2, 5, 7 or 8; expressed in transfected cells; host or cells: HEK293. Conditions: FACS MFI dose-response, full-length FZD in HEK293, 20 μg/ml 4-fold dilutions. The method, then: (§1) To measure antibody binding to FZD by flow cytometry HEK293 cells were co-transfected with FZD expression vectors and the transfection marker GFP. Twenty-four to forty-eight hours post-transfection, cells were collected in suspension and incubated on ice with anti-FZD antibodies (10 μg/ml unless otherwise indicated) or control IgG to detect background antibody binding. The cells were washed and primary antibodies detected with Fc domain-specific secondary antibodies conjugated to a fluorescent chromophore (e.g. phycoerythrin conjugated anti-human IgG). Labeled cells were then analyzed by flow cytometry to identify anti-FZD antibodies that specifically recognize cell surface expression of FZD protein. Monoclonal antibodies 18R5 and 18R8 recognized FZD on transfected cells. As shown in FIG. 1 and FIG. 2, both 18R8 and 18R5 bind to multiple FZD including FZD1, FZD2, FZD5, FZD7, and FZD8. […]
(§2) HEK293 cells were co-transfected with a plasmid DNA expressing full-length FZD1, 2, 5, 7 or 8 along with another plasmid expressing the reporter gene GFP used as a transfection marker. […] The cells were washed and bound anti-Fzd antibodies were detected with a secondary anti-human antibody conjugated to a fluorescent chromophore. Labeled cells were then detected and counted by FACS. The FACS data generated were expressed in Mean Fluorescence Intensity (MFI) units. […]
Background: Flow cytometry measures light scatter and fluorescence of single cells or particles in a stream.

The next assay has as its target T2, FZD1 (Homo sapiens, UniProt Q9UP38).
T2 construct: plasmid DNA expressing full-length FZD1, 2, 5, 7 or 8; expressed in transfected cells; host or cells: HEK293
Put plainly: FACS binding to FZD-transfected HEK293 cells. The settings on record: FACS MFI dose-response, full-length FZD in HEK293, 20 μg/ml 4-fold dilutions. The method, then: as §1, §2

The next assay deals with T3, FZD2 (Homo sapiens, UniProt Q14332).
T3 construct: plasmid DNA expressing full-length FZD1, 2, 5, 7 or 8; expressed in transfected cells; host or cells: HEK293
T3 sequence (Q14332 24-565): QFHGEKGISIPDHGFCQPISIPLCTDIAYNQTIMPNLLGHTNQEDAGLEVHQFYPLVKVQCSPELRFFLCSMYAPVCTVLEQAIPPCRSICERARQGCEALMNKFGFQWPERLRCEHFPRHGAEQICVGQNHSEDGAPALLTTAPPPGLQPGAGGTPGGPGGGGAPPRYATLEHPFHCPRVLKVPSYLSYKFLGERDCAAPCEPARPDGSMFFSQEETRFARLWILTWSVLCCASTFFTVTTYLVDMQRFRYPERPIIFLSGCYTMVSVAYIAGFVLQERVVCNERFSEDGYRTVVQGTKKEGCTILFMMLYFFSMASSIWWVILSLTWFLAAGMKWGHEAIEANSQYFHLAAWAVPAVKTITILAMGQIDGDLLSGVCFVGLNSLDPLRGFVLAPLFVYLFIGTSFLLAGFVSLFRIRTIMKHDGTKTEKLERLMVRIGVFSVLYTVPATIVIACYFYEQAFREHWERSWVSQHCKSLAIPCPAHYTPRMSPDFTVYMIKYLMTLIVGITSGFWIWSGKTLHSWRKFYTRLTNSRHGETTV
Briefly: FACS binding to FZD-transfected HEK293 cells. Conditions: FACS MFI dose-response, full-length FZD in HEK293, 20 μg/ml 4-fold dilutions. The method, then:
as §1, §2

A further assay relates to OMP-C28 tumors. Put plainly: Flow cytometry of ESA and CD44 on cells of treated OMP-C28 tumors. The class given is in vivo, NOD/SCID mice. The settings on record: tumors harvested day 48; control antibody 64%. The method, then: Control and treated tumors from the OMP-C28 xenograft study described above (Example 7) were harvested at the end of the study (day 48). The tumors were processed and dissociated into single cells. Tumor cells were then incubated with biotinylated mouse antibodies (α-mouse CD45-biotin 1:200 dilution and rat α-mouse H2 Kd-biotin 1:100 dilution, BioLegend, San Diego, Calif.) on ice for 30 min followed by addition of streptavidin-labeled magnetic beads (Invitrogen, Carlsbad, Calif.) to remove mouse cells with the aid of a magnet.
For analysis of cell surface markers, the single tumor cell suspension was stained with anti-ESA (Biomeda) and anti-CD44 (BD Biosciences) antibodies which were directly conjugated to fluorochromes. Dead cells were excluded by using the viability dye DAPI. Flow cytometry was performed using a FACS Aria (Becton Dickinson). Side scatter and forward scatter profiles were used to eliminate cell clumps.

T2 sequence (Q9UP38 70-647): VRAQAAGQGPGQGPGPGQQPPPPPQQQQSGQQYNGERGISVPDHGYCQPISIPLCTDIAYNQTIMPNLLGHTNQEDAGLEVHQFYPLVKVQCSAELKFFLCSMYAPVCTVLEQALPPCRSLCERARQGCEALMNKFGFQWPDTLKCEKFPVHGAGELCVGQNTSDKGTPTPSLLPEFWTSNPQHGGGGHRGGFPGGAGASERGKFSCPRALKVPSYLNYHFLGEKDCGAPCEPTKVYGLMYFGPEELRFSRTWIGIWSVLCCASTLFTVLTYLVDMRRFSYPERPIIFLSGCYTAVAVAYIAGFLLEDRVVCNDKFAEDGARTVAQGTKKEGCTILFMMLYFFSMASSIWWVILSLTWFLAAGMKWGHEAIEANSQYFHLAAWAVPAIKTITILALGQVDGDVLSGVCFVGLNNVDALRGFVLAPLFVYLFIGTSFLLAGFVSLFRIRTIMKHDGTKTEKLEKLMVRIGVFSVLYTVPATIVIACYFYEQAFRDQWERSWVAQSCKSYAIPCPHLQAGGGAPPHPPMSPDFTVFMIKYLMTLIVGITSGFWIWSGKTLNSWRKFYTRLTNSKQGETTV

With `Nc1ccn([C@@H]2O[C@H](CO)[C@@H](O)C2(F)F)c(=O)n1` [gemcitabine, reference compound], in the assay with OMP-Pn4 tumors, the “cancer stem cell frequency” value is “had no effect”.

On to “18R5: human anti-FZD antibody; VH SEQ ID NO:10 (as 18R8), VL SEQ ID NO:14; binds FZD1, 2, 5, 7, 8”, for which, in the assay with FZD7 [1], the Kd turned out to be 1800 pM. Further, the results for the half-maximal effective concentration (EC50) in the assay with FZD7 [2], with FZD1 and with FZD2 were 0.58 nM, 0.41 nM and 0.62 nM, respectively.

With `CCc1c2c(nc3ccc(OC(=O)N4CCC(N5CCCCC5)CC4)cc13)-c1cc3c(c(=O)n1C2)COC(=O)[C@]3(O)CC` [irinotecan, reference compound], the “bulk tumor population expressing both ESA and CD44 at high levels (double positive)” value in the assay on OMP-C28 tumors stood at 55%.

What is called Kd is the free concentration of one partner at which half of the binding sites on the other are occupied at equilibrium, for simple one-to-one binding. The term EC50 denotes the concentration at which the effect is half-maximal. Read a high EC50 as a need for much substance.
